# Assay results taken from CN114349855A (BAISIS MEDICAL DIAGNOSIS SCIENCE AND TECH BEIJING LIMITED …, dated 2022).
# Molecular target: T1, 新型冠状病毒野生型Spike蛋白 (新型冠状病毒 (SARS-CoV-2) 野生型, UniProt P0DTC2 16-1213)
# T1 construct: also called 野生型S蛋白
# Experiment: ELISA, S protein coated at 2 μg/mL
row,Binder,binding result
1,"抗体 克隆号9A5F6 23F1 (antibody, V domains shown) VH: QVQLVESGGGVVQPGRSLRLSCAASGFTFSSYAMYWVRQAPGKGLECVAGISYDGSNKYYADSVKGRFTISRENSKNTLYLQMNSLISEDTAVYYCARAEWDYWGQGTLVTVSS VL: SYELTQPSSVSVSPGQTARITCSGDVLAKKYARWFQQKPGQAPVLVIYKDSERPSGIPERFSGSSSGTTVTLTISGAQVEDEADYYCYSAADNNLGVFGGGTKL",no binding (tested: 1 μg/mL)
2,"抗体 克隆号7D7G3D4 (antibody, V domains shown) VH: EVQLVESGGGLVQPGGSLRLSCAASGLTVSSNHMSWVRQAPGKGLEWVSIIYSGGSTYYADSVKGRFTISRDNSKNTLYLQMDSLRAEDTTVYYCARAQGGWELPGAGYYYFNGMDFWGQGTTVTVSS VL: DIQMTQSPSSLSASVGDRVTITCRASQSISTYLNWYQQKPGKAPKLLIYAASNLQSGVPSRFSGSASGTDFTLTISSLQPEDFATYFCQQSYSTSFTFGPGTKVDIK",no binding (tested: 1 μg/mL)
3,"抗体 克隆号9A5D9 22G3 (antibody, V domains shown) VH: EVQLVESGGGLVKPGGSLRLSCAASGFTFSSYSMNWVRQAPGKGLEWVSSISRSSSYIYYADSVMGRFTISRDNAKNSLYLQMNSLRADDTAVYYCARDRGSGNYYVDGLDIWGQGTMVTVSS VL: not shown",no binding (tested: 1 μg/mL)
